{"source": "paper PMC6258048", "about": "(Biochemical and biophysical research communications, 2014)", "binders": {"B1": {"name": "Tcf3 (Transcription factor 3) DNA binding B-HLH domain (domain or fragment)", "chain": "MGHMVHRPWIQDEVLSLEEKDLRDRERRMANNARERVRVRDINEAFRELGRMCQLHLKSDKAQTKLLILQQAVQVILGLEQQVRERNLNPKAACGGRTRIVSAHNSENEL"}}, "key": {"[1]": {"target": "B1", "experiment": "native gel or EMSA"}, "[2]": {"target": "T1, Tcf4 (Transcription factor 4) DNA binding B-HLH domain", "T1 chain": "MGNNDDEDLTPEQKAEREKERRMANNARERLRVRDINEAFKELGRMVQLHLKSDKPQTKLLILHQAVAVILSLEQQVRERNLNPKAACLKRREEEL", "experiment": "native gel or EMSA"}, "[3]": {"target": "Tcf12 (Transcription factor 12) DNA binding B-HLH domain", "experiment": "native gel or EMSA"}, "CD thermal denaturation": {"target": "the molecule itself", "experiment": "CD thermal denaturation"}}}
{"binder": "Ascl1 (Achaete-scute homolog 1) DNA binding B-HLH domain (domain or fragment) MASGFGYSLPQQQPAAVARRNERERNRVKLVNLGFATLREHVPNGAANKKMSKVETLRSAVEYIRALQQLLDEHDAVSAAFQAGVLSPEL", "values": [{"measurement": "binding result", "setting": "[1]", "result": "binds"}, {"measurement": "binding result", "setting": "[2]", "result": "binds"}, {"measurement": "binding result", "setting": "[3]", "result": "binds"}]}
{"binder": "B1", "values": [{"measurement": "binding result", "setting": "CD thermal denaturation", "result": "binds"}]}
